What was measured:
Test in all cases: holdup assay
Set-up in all cases: key: below the threshold = too weak to quantify, mostly under pKd 3.1 to 4
Details in all cases: plain residues with an end cap or a label only (N-terminal biotin on a linker: ado-ado)
[1] = molecular target: T1, DVL3, Q92997
T1 sequence (Q92997 244-331, limits assumed, looked up): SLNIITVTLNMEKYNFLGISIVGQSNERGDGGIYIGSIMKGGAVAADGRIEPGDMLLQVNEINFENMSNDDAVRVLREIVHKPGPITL

[2] = molecular target: T2, ARHGAP21, Q5T5U3
T2 sequence (Q5T5U3 45-169, limits assumed, looked up): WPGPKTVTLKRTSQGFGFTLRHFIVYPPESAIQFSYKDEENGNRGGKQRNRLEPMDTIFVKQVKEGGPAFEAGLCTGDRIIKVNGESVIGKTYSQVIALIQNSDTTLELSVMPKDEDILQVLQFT

[3] = molecular target: GRIP2_5, Q9C0E4
Sequence of GRIP2_5, Q9C0E4 (Q9C0E4 544-642): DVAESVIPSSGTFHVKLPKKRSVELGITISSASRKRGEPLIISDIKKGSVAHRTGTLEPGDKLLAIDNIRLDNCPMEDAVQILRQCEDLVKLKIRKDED

[4] = molecular target: T3, RADIL, Q96JH8
T3 sequence (Q96JH8 971-1071, limits assumed, looked up): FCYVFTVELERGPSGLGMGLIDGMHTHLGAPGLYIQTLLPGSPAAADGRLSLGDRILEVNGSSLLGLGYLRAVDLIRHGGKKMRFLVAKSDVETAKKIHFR

[5] = molecular target: LNX1_1, Q8TBB1
Sequence of LNX1_1, Q8TBB1 (Q8TBB1 261-371): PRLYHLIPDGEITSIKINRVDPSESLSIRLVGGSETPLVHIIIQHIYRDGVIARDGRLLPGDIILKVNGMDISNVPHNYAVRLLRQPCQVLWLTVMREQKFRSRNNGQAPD

[6] = molecular target: DLG4_1, P78352
Sequence of DLG4_1, P78352 (P78352 62-152): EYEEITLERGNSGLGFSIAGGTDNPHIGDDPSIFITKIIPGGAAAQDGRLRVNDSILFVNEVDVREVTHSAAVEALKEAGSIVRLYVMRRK

[7] = molecular target: PTPN3, P26045
Sequence of PTPN3, P26045 (P26045 505-587): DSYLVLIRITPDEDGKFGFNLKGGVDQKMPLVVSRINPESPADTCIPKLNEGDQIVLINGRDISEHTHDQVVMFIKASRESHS

[8] = molecular target: PDZRN4_1, Q6ZMN7
Sequence of PDZRN4_1, Q6ZMN7 (Q6ZMN7 213-318): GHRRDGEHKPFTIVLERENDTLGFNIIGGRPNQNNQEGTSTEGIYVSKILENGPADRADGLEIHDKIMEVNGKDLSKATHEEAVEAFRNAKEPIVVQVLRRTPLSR

[9] = molecular target: T4, MPDZ_10, O75970
T4 sequence (O75970 1624-1722, limits assumed, looked up): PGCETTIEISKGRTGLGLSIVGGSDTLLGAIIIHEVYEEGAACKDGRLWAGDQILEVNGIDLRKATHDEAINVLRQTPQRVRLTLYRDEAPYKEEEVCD

[10] = molecular target: LNX1_2, Q8TBB1
Sequence of LNX1_2, Q8TBB1 (Q8TBB1 371-470): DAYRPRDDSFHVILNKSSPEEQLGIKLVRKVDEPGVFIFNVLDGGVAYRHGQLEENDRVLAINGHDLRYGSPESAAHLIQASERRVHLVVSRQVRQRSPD

[11] = molecular target: T5, MPP7, Q5T2T1
T5 sequence (Q5T2T1 134-230, limits assumed, looked up): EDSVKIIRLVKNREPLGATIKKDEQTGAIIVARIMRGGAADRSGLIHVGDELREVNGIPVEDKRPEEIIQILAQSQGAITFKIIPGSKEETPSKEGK

[12] = molecular target: LDB3, O75112
Sequence of LDB3, O75112 (O75112 1-94): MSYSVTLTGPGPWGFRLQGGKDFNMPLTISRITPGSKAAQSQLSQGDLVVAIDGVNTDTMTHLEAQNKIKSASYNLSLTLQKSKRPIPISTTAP

[13] = molecular target: T6, APBA3_1, O96018
T6 sequence (O96018 389-490, limits assumed, looked up): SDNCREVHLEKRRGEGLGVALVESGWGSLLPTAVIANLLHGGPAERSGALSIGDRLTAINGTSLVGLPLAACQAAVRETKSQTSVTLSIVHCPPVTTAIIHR

[14] = molecular target: MAGI2_4, Q86UL8
Sequence of MAGI2_4, Q86UL8 (Q86UL8 772-865): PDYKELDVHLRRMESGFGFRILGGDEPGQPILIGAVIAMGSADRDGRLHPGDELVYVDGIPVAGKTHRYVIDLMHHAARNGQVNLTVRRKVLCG

[15] = molecular target: ARHGEF12, Q9NZN5-2
Sequence of ARHGEF12, Q9NZN5-2 (Q9NZN5 other isoform, or with tags, fused parts or gaps): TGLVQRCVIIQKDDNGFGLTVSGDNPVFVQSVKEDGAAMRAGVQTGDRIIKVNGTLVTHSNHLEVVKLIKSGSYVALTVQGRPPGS

[16] = molecular target: MAGI3_2, Q5TCQ9
Sequence of MAGI3_2, Q5TCQ9 (Q5TCQ9 398-503): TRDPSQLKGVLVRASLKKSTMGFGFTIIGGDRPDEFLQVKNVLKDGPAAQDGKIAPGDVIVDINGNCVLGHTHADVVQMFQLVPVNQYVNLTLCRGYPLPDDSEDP

[17] = molecular target: GORASP1, Q9BQQ3
Sequence of GORASP1, Q9BQQ3 (Q9BQQ3 1-208): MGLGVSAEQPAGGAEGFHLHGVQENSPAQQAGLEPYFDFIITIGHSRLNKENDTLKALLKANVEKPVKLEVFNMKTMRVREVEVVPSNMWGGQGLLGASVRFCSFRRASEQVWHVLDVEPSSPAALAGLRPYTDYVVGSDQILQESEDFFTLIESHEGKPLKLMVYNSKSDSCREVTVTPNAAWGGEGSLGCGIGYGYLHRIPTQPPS

[18] = molecular target: Inadl_6, Q8NI35
Sequence of Inadl_6, Q8NI35 (Q8NI35 1058-1167): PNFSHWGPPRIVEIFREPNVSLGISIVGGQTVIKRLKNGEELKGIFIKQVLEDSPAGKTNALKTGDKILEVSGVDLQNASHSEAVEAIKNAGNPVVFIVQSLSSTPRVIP

[19] = molecular target: Inadl_9, Q8NI35
Sequence of Inadl_9, Q8NI35 (Q8NI35 1530-1615): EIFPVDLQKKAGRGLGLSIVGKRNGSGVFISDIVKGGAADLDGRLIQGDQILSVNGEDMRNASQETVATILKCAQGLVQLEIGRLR

[20] = molecular target: FRMPD4, Q14CM0
Sequence of FRMPD4, Q14CM0 (Q14CM0 67-160): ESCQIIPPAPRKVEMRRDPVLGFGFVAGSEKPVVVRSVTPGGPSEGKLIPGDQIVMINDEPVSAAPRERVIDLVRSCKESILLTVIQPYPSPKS

[21] = molecular target: MAGI1_1, Q96QZ7
Sequence of MAGI1_1, Q96QZ7 (Q96QZ7 1-106): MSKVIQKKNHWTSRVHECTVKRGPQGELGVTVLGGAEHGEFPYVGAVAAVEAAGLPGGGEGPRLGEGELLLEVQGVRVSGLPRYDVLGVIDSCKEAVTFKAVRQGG

[22] = molecular target: DLG2_2, Q15700
Sequence of DLG2_2, Q15700 (Q15700 189-283): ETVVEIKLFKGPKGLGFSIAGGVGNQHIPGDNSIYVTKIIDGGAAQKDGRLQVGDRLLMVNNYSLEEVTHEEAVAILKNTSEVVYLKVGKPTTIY

[23] = molecular target: NOS1, P29475
Sequence of NOS1, P29475 (P29475 9-101): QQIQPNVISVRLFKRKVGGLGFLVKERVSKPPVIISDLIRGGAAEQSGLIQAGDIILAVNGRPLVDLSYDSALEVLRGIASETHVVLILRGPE

[24] = molecular target: T7, NHERF3_4, Q5T2W1
T7 sequence (Q5T2W1 373-468, limits assumed, looked up): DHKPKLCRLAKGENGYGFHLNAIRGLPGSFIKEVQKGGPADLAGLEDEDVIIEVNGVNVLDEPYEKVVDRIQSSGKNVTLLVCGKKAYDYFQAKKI

[25] = molecular target: MAGI2_2, Q86UL8
Sequence of MAGI2_2, Q86UL8 (Q86UL8 410-522): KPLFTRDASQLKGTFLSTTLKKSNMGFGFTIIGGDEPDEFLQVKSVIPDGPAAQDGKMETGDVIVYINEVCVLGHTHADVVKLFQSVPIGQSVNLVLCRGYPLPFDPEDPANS

[26] = molecular target: T8, CARD11, Q9BXL7
T8 sequence (Q9BXL7 662-765, limits assumed, looked up): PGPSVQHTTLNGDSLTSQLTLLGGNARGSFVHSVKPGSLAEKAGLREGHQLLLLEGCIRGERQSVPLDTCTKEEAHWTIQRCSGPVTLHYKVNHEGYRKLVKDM

[27] = molecular target: Inadl_10, Q8NI35
Sequence of Inadl_10, Q8NI35 (Q8NI35 1673-1763): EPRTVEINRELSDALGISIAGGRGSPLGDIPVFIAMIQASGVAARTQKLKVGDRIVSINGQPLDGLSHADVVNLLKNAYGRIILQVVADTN

[28] = molecular target: FRMPD2_3, Q68DX3
Sequence of FRMPD2_3, Q68DX3 (Q68DX3 1073-1166): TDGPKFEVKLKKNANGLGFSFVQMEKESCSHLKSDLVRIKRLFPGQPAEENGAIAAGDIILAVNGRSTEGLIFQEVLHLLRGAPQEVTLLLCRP

[29] = molecular target: MAGI2_3, Q86UL8
Sequence of MAGI2_3, Q86UL8 (Q86UL8 600-682): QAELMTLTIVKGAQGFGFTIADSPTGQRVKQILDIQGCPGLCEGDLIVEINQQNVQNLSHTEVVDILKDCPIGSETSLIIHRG

[30] = molecular target: SCRIB_3, Q14160
Sequence of SCRIB_3, Q14160 (Q14160 999-1103): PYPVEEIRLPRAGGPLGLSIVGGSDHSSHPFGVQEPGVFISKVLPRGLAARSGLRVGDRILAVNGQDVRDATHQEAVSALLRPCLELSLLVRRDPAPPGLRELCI

Measured: pKd

QSPPNIYYKV [EFNB3, Q15768]
3.54: [24]
4.01: [20]
3.74: [10]
3.86: [5]
4.75: [17]
3.53: [19] | [23]
3.66: [11]
4.05: [7]
4.29: [4]
3.69: [14]
below the threshold: all other assays above

PAPGQHTTQI [STK16, O75716]
3.75: [4]
4.38: [15]
4.21: [7]
3.5: [14]
3.79: [22]
4.18: [30]
3.69: [23]
below the threshold: all other assays above

DSATVRTYSC [PPFIA1, Q13136]
3.92: [11]
3.8: [20]
3.68: [7]
4.83: [10]
below the threshold: all other assays above
